This is an account of results in PMC6853996, “Assaying Homodimers of NF-κB in Live Single Cells” (Frontiers in Immunology, 2019).

Data set [1] concerns the molecule itself. As to the kind of experiment: Number and Brightness (N&B) live-cell confocal fluorescence fluctuation microscopy; nuclei of live NIH3T3 fibroblasts transiently or stably expressing the mEGFP fusion, 37°C; brightness ε relative to the mEGFP-mutGR monomer control; stimuli 10 ng/mL TNFα, 100 ng/mL LPS, 100 nM Dex, dihydrotestosterone or progesterone; pre-treatments WFA (0.5 or 1 μM, 1 h) or TSA (2 h) before LPS; untagged endogenous protein present.

The target of data set [2] is T1, mEGFP-RelA (fluorescent fusion protein expressed from the pSF-EF1α-Ub-Neo plasmid), Q04207.
T1 chain: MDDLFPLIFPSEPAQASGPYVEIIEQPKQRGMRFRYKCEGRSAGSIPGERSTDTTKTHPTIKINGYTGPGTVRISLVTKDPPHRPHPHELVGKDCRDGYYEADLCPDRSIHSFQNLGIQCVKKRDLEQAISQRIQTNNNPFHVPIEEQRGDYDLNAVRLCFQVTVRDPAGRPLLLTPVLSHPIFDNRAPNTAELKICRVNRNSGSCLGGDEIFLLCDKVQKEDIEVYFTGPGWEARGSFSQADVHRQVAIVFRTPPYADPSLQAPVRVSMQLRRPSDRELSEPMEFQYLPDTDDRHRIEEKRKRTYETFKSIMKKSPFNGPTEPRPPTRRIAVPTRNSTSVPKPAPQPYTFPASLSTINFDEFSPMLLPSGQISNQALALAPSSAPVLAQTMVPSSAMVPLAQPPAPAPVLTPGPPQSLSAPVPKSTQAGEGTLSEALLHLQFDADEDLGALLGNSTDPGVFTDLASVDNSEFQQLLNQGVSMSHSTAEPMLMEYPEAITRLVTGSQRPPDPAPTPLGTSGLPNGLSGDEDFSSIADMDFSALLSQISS
The description is as above. The following applies: remark: other sources report otherwise.

Data set [3] addresses T1, mEGFP-RelA (fluorescent fusion protein …). Briefly: Number and Brightness (N&B) live-cell confocal fluorescence fluctuation microscopy; nuclei of live primary mouse adult fibroblasts (WT or p50/c-Rel double-KO) transiently expressing mEGFP-RelA, 100 ng/mL LPS; brightness ε relative to the monomer control; untagged endogenous RelA present. The following applies: remark: other sources report otherwise.

Data set [4] addresses T2, mEGFP-RelA from the knock-in (KI) mouse (mEGFP inserted at the endogenous RelA locus) (mouse), Q04207.
T2 chain: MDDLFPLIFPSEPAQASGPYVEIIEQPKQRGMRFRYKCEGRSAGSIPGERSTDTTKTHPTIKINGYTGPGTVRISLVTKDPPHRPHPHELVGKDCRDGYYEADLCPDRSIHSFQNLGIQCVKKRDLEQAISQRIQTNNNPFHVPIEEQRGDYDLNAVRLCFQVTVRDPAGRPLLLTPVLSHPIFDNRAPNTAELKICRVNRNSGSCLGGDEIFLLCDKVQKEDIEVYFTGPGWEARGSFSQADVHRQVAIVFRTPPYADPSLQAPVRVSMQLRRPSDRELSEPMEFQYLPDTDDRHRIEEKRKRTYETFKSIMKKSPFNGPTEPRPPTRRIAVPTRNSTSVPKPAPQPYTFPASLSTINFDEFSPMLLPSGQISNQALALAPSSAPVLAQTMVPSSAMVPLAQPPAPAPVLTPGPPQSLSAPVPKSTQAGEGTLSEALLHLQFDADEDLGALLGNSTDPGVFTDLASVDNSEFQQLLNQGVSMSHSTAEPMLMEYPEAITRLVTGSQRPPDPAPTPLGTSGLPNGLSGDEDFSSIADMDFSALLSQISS
As to the kind of experiment: Number and Brightness (N&B) live-cell confocal fluorescence fluctuation microscopy; nuclei of live primary MAFs from the mEGFP-RelA knock-in mouse, treated with TNFα or LPS; all RelA tagged. As to conditions: remark: other sources report otherwise.

For data set [5], the target named is T3, mEGFP-GR (mEGFP-tagged wild-type glucocorticoid receptor), P06537.
T3 chain: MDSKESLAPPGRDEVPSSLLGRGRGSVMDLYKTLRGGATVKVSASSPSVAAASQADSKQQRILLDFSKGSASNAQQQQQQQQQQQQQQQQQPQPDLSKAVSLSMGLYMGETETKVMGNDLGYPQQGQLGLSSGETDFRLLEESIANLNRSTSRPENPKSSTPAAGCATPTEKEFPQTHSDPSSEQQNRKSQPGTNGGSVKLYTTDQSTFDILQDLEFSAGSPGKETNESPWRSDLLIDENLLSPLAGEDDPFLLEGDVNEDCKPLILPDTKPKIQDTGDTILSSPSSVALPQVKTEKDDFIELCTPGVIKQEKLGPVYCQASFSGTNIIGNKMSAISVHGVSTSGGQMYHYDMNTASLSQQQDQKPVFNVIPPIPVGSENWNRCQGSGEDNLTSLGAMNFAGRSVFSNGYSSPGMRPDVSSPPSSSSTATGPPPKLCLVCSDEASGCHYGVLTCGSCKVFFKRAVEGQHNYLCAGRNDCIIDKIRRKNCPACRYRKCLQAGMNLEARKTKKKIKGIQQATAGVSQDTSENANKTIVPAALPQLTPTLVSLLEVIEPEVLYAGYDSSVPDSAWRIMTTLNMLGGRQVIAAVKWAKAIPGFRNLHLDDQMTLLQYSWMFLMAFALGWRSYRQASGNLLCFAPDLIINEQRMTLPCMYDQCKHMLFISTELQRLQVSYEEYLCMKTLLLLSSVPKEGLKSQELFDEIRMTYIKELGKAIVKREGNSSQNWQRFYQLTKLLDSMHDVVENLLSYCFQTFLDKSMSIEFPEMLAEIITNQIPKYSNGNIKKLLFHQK
As to the kind of experiment: Number and Brightness (N&B) live-cell confocal fluorescence fluctuation microscopy; nuclei of live NIH3T3 fibroblasts transiently or stably expressing the mEGFP fusion, 37°C; brightness ε relative to the mEGFP-mutGR monomer control; stimuli 10 ng/mL TNFα, 100 ng/mL LPS, 100 nM Dex, dihydrotestosterone or progesterone; pre-treatments WFA (0.5 or 1 μM, 1 h) or TSA (2 h) before LPS; untagged endogenous protein present. The following applies: remark: other sources report otherwise.

Where “and” joins values, the source holds several entries; their conditions need not be identical. Equal entries are not always repeated. Some results are limits rather than exact numbers.

B1: mEGFP-PR (mEGFP-tagged progesterone receptor) (natural protein, UniProt P06401 1-933, looked up)
chain: MTELKAKGPRAPHVAGGPPSPEVGSPLLCRPAAGPFPGSQTSDTLPEVSAIPISLDGLLFPRPCQGQDPSDEKTQDQQSLSDVEGAYSRAEATRGAGGSSSSPPEKDSGLLDSVLDTLLAPSGPGQSQPSPPACEVTSSWCLFGPELPEDPPAAPATQRVLSPLMSRSGCKVGDSSGTAAAHKVLPRGLSPARQLLLPASESPHWSGAPVKPSPQAAAVEVEEEDGSESEESAGPLLKGKPRALGGAAAGGGAAAVPPGAAAGGVALVPKEDSRFSAPRVALVEQDAPMAPGRSPLATTVMDFIHVPILPLNHALLAARTRQLLEDESYDGGAGAASAFAPPRSSPCASSTPVAVGDFPDCAYPPDAEPKDDAYPLYSDFQPPALKIKEEEEGAEASARSPRSYLVAGANPAAFPDFPLGPPPPLPPRATPSRPGEAAVTAAPASASVSSASSSGSTLECILYKAEGAPPQQGPFAPPPCKAPGASGCLLPRDGLPSTSASAAAAGAAPALYPALGLNGLPQLGYQAAVLKEGLPQVYPPYLNYLRPDSEASQSPQYSFESLPQKICLICGDEASGCHYGVLTCGSCKVFFKRAMEGQHNYLCAGRNDCIVDKIRRKNCPACRLRKCCQAGMVLGGRKFKKFNKVRVVRALDAVALPQPVGVPNESQALSQRFTFSPGQDIQLIPPLINLLMSIEPDVIYAGHDNTKPDTSSSLLTSLNQLGERQLLSVVKWSKSLPGFRNLHIDDQITLIQYSWMSLMVFGLGWRSYKHVSGQMLYFAPDLILNEQRMKESSFYSLCLTMWQIPQEFVKLQVSQEEFLCMKVLLLLNTIPLEGLRSQTQFEEMRSSYIRELIKAIGLRQKGVVSSSQRFYQLTKLLDNLHDLVKQLHLYCLNTFIQSRALSVEFPEMMSEVIAAQLPKILAGMVKPLLFHKK
notes: progesterone receptor; Assayed in cells treated with progesterone; source: fibroblasts (immortalized), transiently transfected, in live cells
Take B1: in data set [1], the “nuclear brightness (ε) relative to monomer control; transiently transfected fibroblasts, progesterone” value is 2.07.

B2: mEGFP-RelA (fluorescent fusion protein expressed from the pSF-EF1α-Ub-Neo plasmid), Q04207 1-549 (natural protein)
chain: MDDLFPLIFPSEPAQASGPYVEIIEQPKQRGMRFRYKCEGRSAGSIPGERSTDTTKTHPTIKINGYTGPGTVRISLVTKDPPHRPHPHELVGKDCRDGYYEADLCPDRSIHSFQNLGIQCVKKRDLEQAISQRIQTNNNPFHVPIEEQRGDYDLNAVRLCFQVTVRDPAGRPLLLTPVLSHPIFDNRAPNTAELKICRVNRNSGSCLGGDEIFLLCDKVQKEDIEVYFTGPGWEARGSFSQADVHRQVAIVFRTPPYADPSLQAPVRVSMQLRRPSDRELSEPMEFQYLPDTDDRHRIEEKRKRTYETFKSIMKKSPFNGPTEPRPPTRRIAVPTRNSTSVPKPAPQPYTFPASLSTINFDEFSPMLLPSGQISNQALALAPSSAPVLAQTMVPSSAMVPLAQPPAPAPVLTPGPPQSLSAPVPKSTQAGEGTLSEALLHLQFDADEDLGALLGNSTDPGVFTDLASVDNSEFQQLLNQGVSMSHSTAEPMLMEYPEAITRLVTGSQRPPDPAPTPLGTSGLPNGLSGDEDFSSIADMDFSALLSQISS
As to B2, in data set [2], the median nuclear brightness (ε) relative to monomer control; stably transfected 3T3, LPS stood at 1.75; the median nuclear brightness (ε) relative to monomer control; stably transfected 3T3, TNFα was found to be 1.61; the median nuclear brightness (ε) relative to monomer control; transiently transfected 3T3, TNFα turned out to be 1.52; the nuclear brightness (ε); stably transfected 3T3, 0.5 μM WFA before LPS turned out to be 1.57. Moreover, in data set [2], the nuclear brightness (ε); stably transfected 3T3, 1 μM WFA before LPS is 1.61; the nuclear brightness (ε); stably transfected 3T3, TSA before LPS (concentration not given) was 1.42 and 1.58; the percent dimers (estimated from ε); stably transfected 3T3, LPS was 60%; the percent dimers (estimated from ε); stably transfected 3T3, TNFα was 43%. Besides, the percent of RelA dimer species that are RelA homodimers (estimated from ε); transiently transfected 3T3, TNFα in data set [2] was 35%. In addition, in data set [3], the nuclear brightness (ε) relative to monomer control; WT primary MAFs, LPS stood at 1.29; the nuclear brightness (ε) relative to monomer control; p50/c-Rel double-KO primary MAFs, LPS is 1.31; the percent of RelA-containing dimers in the nucleus that are homodimers (estimated from ε); WT primary MAFs, LPS is 20%.

B3: mEGFP-RelA from the knock-in (KI) mouse (mEGFP inserted at the endogenous RelA locus), Q04207 1-549 (natural protein)
chain: MDDLFPLIFPSEPAQASGPYVEIIEQPKQRGMRFRYKCEGRSAGSIPGERSTDTTKTHPTIKINGYTGPGTVRISLVTKDPPHRPHPHELVGKDCRDGYYEADLCPDRSIHSFQNLGIQCVKKRDLEQAISQRIQTNNNPFHVPIEEQRGDYDLNAVRLCFQVTVRDPAGRPLLLTPVLSHPIFDNRAPNTAELKICRVNRNSGSCLGGDEIFLLCDKVQKEDIEVYFTGPGWEARGSFSQADVHRQVAIVFRTPPYADPSLQAPVRVSMQLRRPSDRELSEPMEFQYLPDTDDRHRIEEKRKRTYETFKSIMKKSPFNGPTEPRPPTRRIAVPTRNSTSVPKPAPQPYTFPASLSTINFDEFSPMLLPSGQISNQALALAPSSAPVLAQTMVPSSAMVPLAQPPAPAPVLTPGPPQSLSAPVPKSTQAGEGTLSEALLHLQFDADEDLGALLGNSTDPGVFTDLASVDNSEFQQLLNQGVSMSHSTAEPMLMEYPEAITRLVTGSQRPPDPAPTPLGTSGLPNGLSGDEDFSSIADMDFSALLSQISS
In the case of B3, the percent of RelA dimer species that are RelA homodimers; knock-in MAFs, TNFα or LPS in data set [4] was below 35%.

B4: mEGFP-GR (mEGFP-tagged wild-type glucocorticoid receptor), P06537 1-792 (natural protein)
chain: MDSKESLAPPGRDEVPSSLLGRGRGSVMDLYKTLRGGATVKVSASSPSVAAASQADSKQQRILLDFSKGSASNAQQQQQQQQQQQQQQQQQPQPDLSKAVSLSMGLYMGETETKVMGNDLGYPQQGQLGLSSGETDFRLLEESIANLNRSTSRPENPKSSTPAAGCATPTEKEFPQTHSDPSSEQQNRKSQPGTNGGSVKLYTTDQSTFDILQDLEFSAGSPGKETNESPWRSDLLIDENLLSPLAGEDDPFLLEGDVNEDCKPLILPDTKPKIQDTGDTILSSPSSVALPQVKTEKDDFIELCTPGVIKQEKLGPVYCQASFSGTNIIGNKMSAISVHGVSTSGGQMYHYDMNTASLSQQQDQKPVFNVIPPIPVGSENWNRCQGSGEDNLTSLGAMNFAGRSVFSNGYSSPGMRPDVSSPPSSSSTATGPPPKLCLVCSDEASGCHYGVLTCGSCKVFFKRAVEGQHNYLCAGRNDCIIDKIRRKNCPACRYRKCLQAGMNLEARKTKKKIKGIQQATAGVSQDTSENANKTIVPAALPQLTPTLVSLLEVIEPEVLYAGYDSSVPDSAWRIMTTLNMLGGRQVIAAVKWAKAIPGFRNLHLDDQMTLLQYSWMFLMAFALGWRSYRQASGNLLCFAPDLIINEQRMTLPCMYDQCKHMLFISTELQRLQVSYEEYLCMKTLLLLSSVPKEGLKSQELFDEIRMTYIKELGKAIVKREGNSSQNWQRFYQLTKLLDSMHDVVENLLSYCFQTFLDKSMSIEFPEMLAEIITNQIPKYSNGNIKKLLFHQK
Take B4: the nuclear brightness (ε) relative to monomer control; transiently transfected 3T3, Dex in data set [5] stood at 1.52.
